# Experimental data reported in PMC4737671 (International Journal of Biological Sciences, 2016).
# B1: BRCA1 fragment 421-988aa (domain or fragment, human, UniProt P38398 421-988, looked up)
# chain: EYSGSSEKIDLLASDPHEALICKSERVHSKSVESNIEDKIFGKTYRKKASLPNLSHVTENLIIGAFVTEPQIIQERPLTNKLKRKRRPTSGLHPEDFIKKADLAVQKTPEMINQGTNQTEQNGQVMNITNSGHENKTKGDSIQNEKNPNPIESLEKESAFKTKAEPISSSISNMELELNIHNSKAPKKNRLRRKSSTRHIHALELVVSRNLSPPNCTELQIDSCSSSEEIKKKKYNQMPVRHSRNLQLMEGKEPATGAKKSNKPNEQTSKRHDSDTFPELKLTNAPGSFTKCSNTSELKEFVNPSLPREEKEEKLETVKVSNNAEDPKDLMLSGERVLQTERSVESSSISLVPGTDYGTQESISLLEVSTLGKAKTEPNKCVSQCAAFENPKGLIHGCSKDNRNDTEGFKYPLGHEVNHSRETSIEMEESELDAQYLQNTFKVSKRQSFAPFSNPGNAEEECATFSAHSGSLKKQSPKVTFECEQKEENQGKNESNIKPVQTVNITAGFPVVGQKDKPVDNAKCSIKGGSRFCLSSQFRGNETGLITPNKHGLLQNPYRIPPLFPIKS
# B2: BRCA1 281-701aa (domain or fragment, human, UniProt P38398 281-701, looked up)
# chain: SSLQHENSSLLLTKDRMNVEKAEFCNKSKQPGLARSQHNRWAGSKETCNDRRTPSTEKKVDLNADPLCERKEWNKQKLPCSENPRDTEDVPWITLNSSIQKVNEWFSRSDELLGSDDSHDGESESNAKVADVLDVLNEVDEYSGSSEKIDLLASDPHEALICKSERVHSKSVESNIEDKIFGKTYRKKASLPNLSHVTENLIIGAFVTEPQIIQERPLTNKLKRKRRPTSGLHPEDFIKKADLAVQKTPEMINQGTNQTEQNGQVMNITNSGHENKTKGDSIQNEKNPNPIESLEKESAFKTKAEPISSSISNMELELNIHNSKAPKKNRLRRKSSTRHIHALELVVSRNLSPPNCTELQIDSCSSSEEIKKKKYNQMPVRHSRNLQLMEGKEPATGAKKSNKPNEQTSKRHDSDTFPELK
# Molecular target: the molecule itself
# Assay: atomic force microscopy
Protein,stoichiometry N,binding result
B1,2,–
B2,–,binds
